T1: hu75/mu25 chimeric CS1-Fc (human/mouse chimera; human)
T1 construct: entry starts with the signal peptide; not shown: human gamma 1 Fc tag of the NIF Fc vector
T1 chain: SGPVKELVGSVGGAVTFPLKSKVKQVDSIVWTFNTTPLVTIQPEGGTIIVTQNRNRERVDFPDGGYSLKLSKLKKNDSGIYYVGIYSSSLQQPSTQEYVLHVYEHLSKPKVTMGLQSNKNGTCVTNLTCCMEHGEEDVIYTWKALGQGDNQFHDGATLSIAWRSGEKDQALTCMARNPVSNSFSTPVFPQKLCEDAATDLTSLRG


Assays:
[1] = target: T2, CS1 ECD-Fcγ3 fusion protein (human, UniProt Q9NQ25 23-226); experiment: direct binding ELISA, coated human CS1-human Fcγ3
T2 construct: also called CS1-G3; CS1-γ3; not shown: constant region of IgG3 (human Fc-γ3)

[2] = target: T3, human CS1-Fc fusion protein (human, UniProt Q9NQ25 23-226, limits assumed); experiment: SPR BIAcore 2000, antibody immobilised, CS1-Fc analyte, bivalent analyte model
T3 construct: analyte of the BIAcore experiment; not shown: Fc part

[3] = target: T4, human CS1 (native, on K562 and Daudi cells) (human, UniProt Q9NQ25 23-335); experiment: FACS, K562 cells
T4 construct: K562 and Daudi cells 'are known to express native CS1'; also called SLAMF7; CRACC

[4] = target: T4, human CS1 (native, on K562 and Daudi …); experiment: FACS, Daudi cells
[5] = target: T5, CS1 ECD-myc-GPI fusion protein on NSO cells (human, UniProt Q9NQ25 23-226, glycosyl phosphatidylinositol linkage for cell surface expression); experiment: FACS, NSO-CS1 cells
T5 construct: also called NSO-CS1

NSO-FcRn = target: T6, NSO-FcRn; experiment: FACS, NSO-FcRn cells
T6 construct: negative control transfectant; also called FcRn on NSO cells

[6] = target: T1, hu75/mu25 chimeric CS1-Fc; experiment: sandwich ELISA, Fc-captured construct
[7] = target: T7, huCS1 (human CS1 extracellular domain, amino acids 1-227, fused to human gamma 1 Fc) (human, UniProt P01857-1 99-330 = IgG part); experiment: sandwich ELISA, Fc-captured construct
T7 construct: domain: human Fc tag; secreted protein in 293/T supernatant; also called human CS1-Fc

[8] = target: T8, mu25/hu75 chimeric CS1-Fc (human/mouse chimera; human); experiment: sandwich ELISA, Fc-captured construct
T8 construct: entry starts with the signal peptide; not shown: human gamma 1 Fc tag of the NIF Fc vector

[9] = target: T5, CS1 ECD-myc-GPI fusion protein on NSO …; experiment: cell-based or functional assay
[10] = target: T3, human CS1-Fc fusion protein; experiment: SPR BIAcore 2000

Binder | EC50 [1] [µg/mL] | Kd [2] [nM] | FACS (MFI) [3] [MFI] | FACS (MFI) [4] [MFI] | FACS (MFI) [5] [MFI] | FACS (MFI) (NSO-FcRn) | koff [2] [s⁻¹] | kon [2] [M⁻¹ s⁻¹] | binding result [6] | binding result [7] | binding result [8] | cytotoxicity of the target cells (ADCC, LDH release, PBMC effectors 20:1) [9] [%] | fold higher binding affinity than Luc34.1 [10] [fold] | fold higher binding affinity than Luc 63.2 [10] [fold]
Luc63 (antibody, IgG2a, V domains shown, mouse monoclonal, IgG2a; also called Lu 63; Luc63-1) VH: EVKLLESGGGLVQPGGSLKLSCAASGFDFSRYWMSWVRQAPGKGLEWIGEINPDSSTINYTPSLKDKFIISRDNAKNTLYLQMSKVRSEDTALYYCARPDGNYWYFDVWGAGTTVTVSS VL: DIVMTQSHKFMSTSVGDRVSITCKASQDVGIAVAWYQQKPGQSPKLLIYWASTRHTGVPDRFTGSGSGTDFTLTISNVQSEDLADYFCQQYSSYPYTFGGGTKLEIK | 0.0661 | 34.6 | 15.8 | 12.7 | 214 | < 5 | – | – | – | – | – | – | – | –
Luc34 (antibody, IgG1, V domains shown, subclone Luc34.1 used in BIAcore; also called Luc34-1; Luc34-3) VH: QVQLQQSGAELARPGASVKLSCKASGYTFTSYWMQWVKQRPGQGLEWIGAIYPGDGDTRYTQKFKGKATLTADKSSSTAYMQLSSLASEDSAVYYCARGKVYYGSNPFAYWGQGTLVTVSA VL: DIQMTQSSSYLSVSLGGRVTITCKASDHINNWLAWYQQKPGNAPRLLISGATSLETGVPSRFSGSGSGKDYTLSITSLQTEDVATYYCQQYWSTPWTFGGGTKLEIK | – | 173 | 26.2 | 10.3 | 127 | < 5 | 0.00127 | 7480 | binds | binds | no binding (tested: 2 ug/ml) | – | – | –
Luc69 (antibody, V domains shown, mouse monoclonal) VH: QVQLQQSGPELVKPGASVKISCKASGYAFSNSWMNWVKQRPGQGLEWIGRIYPGDGDTKSNGKFKGKATLTADKSSRAAYMQLSSLTSVDSAVYFCARSTMIMTGAMDYWGQGTSVTVSS VL: DIVMTQSHKFMSTSVGDRVIITCKASQDVSTAVAWYQQKPGQSPKLLIYSASFRYTGVPDRFTGSGSGTDFTFTVSSVQAEDLAVYYCQQHYSTPPYTFGGGTKLEIK | – | – | – | – | – | – | – | – | binds | binds | no binding (tested: 2 ug/ml) | – | – | –
Luc90 (antibody, IgG2b, V domains shown, mouse monoclonal, IgG2b; subclone Luc90.H1 used in BIAcore; also called Luc90-H1, D9; Luc90.H1) VH: QVQLQQPGAELVRPGASVKLSCKASGYSFTTYWMNWVKQRPGQGLEWIGMIHPSDSETRLNQKFKDKATLTVDKSSSTAYMQLSSPTSEDSAVYYCARSTMIATRAMDYWGQGTSVTVSS VL: DIVMTQSQKSMSTSVGDRVSITCKASQDVITGVAWYQQKPGQSPKLLIYSASYRYTGVPDRFTGSGSGTDFTFTISNVQAEDLAVYYCQQHYSTPLTFGAGTKLELK | – | 6.29 | 9.7 | 10.1 | 237 | < 5 | 0.000281 | 45600 | binds | binds | no binding (tested: 2 ug/ml) | ~50 | 28 | 5.5
HuLuc63 (antibody, human IgG1, V domains shown, human IgG1/κ, transiently expressed in 293-H cells; also called humanized Luc63; HuLuc63 IgG1/κ antibody) VH: EVQLVESGGGLVQPGGSLRLSCAASGFDFSRYWMSWVRQAPGKGLEWIGEINPDSSTINYAPSLKDKFIISRDNAKNSLYLQMNSLRAEDTAVYYCARPDGNYWYFDVWGQGTLVTVSS VL: DIQMTQSPSSLSASVGDRVTITCKASQDVGIAVAWYQQKPGKVPKLLIYWASTRHTGVPDRFSGSGSGTDFTLTISSLQPEDVATYYCQQYSSYPYTFGQGTKVEIK | 0.0701 | – | – | – | – | – | – | – | – | – | – | – | – | –

From US20060024296A1 (AbbVie / Abbott, published 2006)
